The text below walks through data of patent US20200299380A1 (published 2020).

Experiment [1] addresses T1, MICA*008 expressed at the cell surface (human, UniProt Q29983 24-297).
T1 construct: also called C1R-MICA*008; C1R-MICA*08
T1 chain: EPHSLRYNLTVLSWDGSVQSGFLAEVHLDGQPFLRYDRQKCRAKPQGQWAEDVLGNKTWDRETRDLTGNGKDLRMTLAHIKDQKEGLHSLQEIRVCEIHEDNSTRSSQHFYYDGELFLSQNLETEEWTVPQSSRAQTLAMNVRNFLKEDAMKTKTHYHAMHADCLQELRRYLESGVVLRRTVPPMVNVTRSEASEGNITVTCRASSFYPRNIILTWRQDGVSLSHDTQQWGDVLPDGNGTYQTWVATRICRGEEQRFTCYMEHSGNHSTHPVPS
Briefly: flow cytometry on C1R transfectant cells, 4-parameter logistic fit.

Experiment [2] has as its target T2, MICB-Fc (R&D Systems 1599-MB) (human, UniProt Q29980 23-298, limits assumed).
T2 construct: Bought; also called human MICB-Fc; not shown: Fc of the bought fusion protein
T2 sequence: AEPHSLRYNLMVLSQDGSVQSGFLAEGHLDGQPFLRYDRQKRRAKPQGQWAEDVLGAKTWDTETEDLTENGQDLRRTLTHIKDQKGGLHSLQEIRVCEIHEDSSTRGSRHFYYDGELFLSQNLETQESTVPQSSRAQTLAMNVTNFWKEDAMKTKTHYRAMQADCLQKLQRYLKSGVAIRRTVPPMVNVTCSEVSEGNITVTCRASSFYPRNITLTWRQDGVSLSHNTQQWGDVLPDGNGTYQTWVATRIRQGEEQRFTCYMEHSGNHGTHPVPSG
Kind of experiment: SPR, antibody injected over immobilized MICB-Fc. The procedure:
For cross-binding study, the human ULBP-1-Fc (R&D systems*), MICB-Fc (*), ULBP-2-Fc (*) and ULBP-3-Fc (*) recombinant proteins were covalently immobilized respectively on the flow cell one to four of a CM5 sensorchip. Anti-MICA antibodies (at a constant concentration of 10 μg/ml) were injected for 2 minutes at a flow rate of 10 μl/min onto the four flow cells in parallel. After each cycle, Sensorchip was regenerated by a five second injection of appropriate regeneration buffer.

The target in experiment [3] is T3, recombinant human MICA extracellular domain recombinant-Fc protein (MICA*019 allele, R&D Systems) (human, UniProt Q29983 24-297).
T3 construct: also called MICA*019-Fc; MICA-Fc; not shown: Fc of the bought fusion protein
T3 chain: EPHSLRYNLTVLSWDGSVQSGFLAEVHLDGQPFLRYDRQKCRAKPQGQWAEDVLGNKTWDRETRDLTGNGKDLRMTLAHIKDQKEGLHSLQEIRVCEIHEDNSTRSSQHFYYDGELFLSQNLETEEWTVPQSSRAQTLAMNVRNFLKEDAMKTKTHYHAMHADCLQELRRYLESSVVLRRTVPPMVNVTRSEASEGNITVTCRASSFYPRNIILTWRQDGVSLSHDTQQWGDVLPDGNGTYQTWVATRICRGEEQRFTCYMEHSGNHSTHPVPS
Kind of experiment: SPR solution competition experiment (MICA*019-Fc pre-incubated with antibody, NKG2D-Fc chip). The procedure:
SPR measurements were performed on a Biacore T100 apparatus (Biacore GE Healthcare) at 25° C. In all Biacore experiments HBS-EP+ buffer (Biacore GE Healthcare) served as running buffer, 10 mM NaOH, 500 mM NaCl served as regeneration buffer and sensorgrams were analyzed with Biaevaluation 4.1 and Biacore T100 Evaluation software.
For solution competition experiments, the human NKG2D-Fc (R&D systems) recombinant proteins were covalently immobilized onto a CM5 sensorchip. Soluble human MICA*01-BirA or human MICA*019-Fc (R&D systems) recombinant proteins at a constant concentration of 10 μg/ml were pre-incubated with a 5 to 10 molar equivalent excess of antibodies and injected for 2 minutes at a flow rate of 10 μl/min onto the NKG2D-Fc chip. After each cycle, Sensorchips were regenerated by a five second injection of appropriate regeneration buffer.

The target in experiment [4] is T1, MICA*008 expressed at the cell surface. Briefly: flow cytometry on C1R transfectant cells. As to the method:
The binding of antibodies obtained from the first, second and third immunization series (including CHG1-M-MIA-19E9, CHG1-M-MIA-9C10, CHG1-M-MIA-6E4, CHG1-M-MIA-20C6, CHG1-M-MIA-16A8, CHG1-M-MIA-12A10, CHG1-M-MIA-10A7, CHG1-M-MIA-18E8, CHG1-M-MIA-10F3, CHG1-M-MIA-15F9 and CHG1-M-MIA-14B4) were tested for binding to MICA-expressing CR1 transfectant cells C1R-MICA*001, C1R-MICA*004, C1R-MICA*007 and C1R-MICA*008 (Pr. A. Steinle, Eberhard-Karls University Tuebingen, Germany) described in Salih et al. (2003) Blood 102(4): […]. Binding was analyzed by flow cytometry.
Cells were harvested and stained in PBS 1×/BSA 0.2%/EDTA 2 mM buffer during 30 minutes at 4° C. using a dose-range of the anti-MICA mAbs. After two washes in staining buffer, cells were stained for 30 min at 4° C. with mouse anti-human IgG1-PE monoclonal antibodies (1/11). After two washes, stainings were acquired on a BD FACS Canto II and analyzed using the FlowJo software.
On the technique in general: Flow cytometry measures light scatter and fluorescence of single cells or particles in a stream.

B1: CHG1-M-MIA-20C6 (antibody, V domains shown)
VH: QITLKESGPGILKPSQTLSLTCSFSGFSLSTSGMGVGWIRQPSGKGLEWLAHIWWDDDKYYNPSLKSQLTISKDTSRNQVFLRITSVDTADTATYYCARRTQGYFDYWGQGTTLTVSS
VL: DIVMTQSPATLSVTPGDRVSLSCRASQSISDYLHWYQQKSHESPRLLIKYASQSISGIPSRFSGSGSGSDFTLSINSVEPEDVGVYYCQNGHSFPWTFGGGTKLEIKR
notes: also called chimeric anti-MICA 20C6
Broadly, the EC50 is the concentration at which the effect is half-maximal. A higher EC50 goes with weaker potency. Consider B1, for which the midpoint of the response in experiment [1], the EC50, lay at 0.13 µg/mL. Further, the binding result in experiment [2] was “no binding (tested: 10 µg/ml)”.

B2: CHG1-M-MIA-16A8 (antibody, V domains shown)
VH: EVQLVESGGGLVKPGGSLKLSCAASGFTFSRYAMSWVRQTPEKRLEWVATIFSGGSYTYYPDSVKGRFTISRDNANNTLYLQMSSLKAEDTAMYFCARPNWERTFDYWGQGTTLTVSS
VL: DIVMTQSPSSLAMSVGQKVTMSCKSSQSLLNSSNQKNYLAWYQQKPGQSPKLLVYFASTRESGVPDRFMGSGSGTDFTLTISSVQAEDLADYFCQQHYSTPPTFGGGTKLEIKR
notes: also called CHG1-M-MIA2-16A8; chimeric anti-MICA 16A8
On to B2, for which the binding result in experiment [3] is “no binding”.

B3: CHG1-M-MIA-6E4 (antibody, V domains shown)
VH: EVQLVESGGALVKPGGSLKLSCAASGFTFSYYAMSWVRQTPEKRLEWVATISRGGNYIYYTDSVKGRFTISRDNAKNTLYLQMTSLRSEDTAMFYCASISDYDGAWLAYWGQGTTLTVSS
VL: DVLMTQTPLSLPVSLGDQASISCRSSQSIIHTNGNTYLEWYLQKPGQSPKLLIYKISNRFSGVPDRFSGSGSGTDFTLKISRVEAEDLGVYYCFQGSHVPWTFGGGTKLEIKR
notes: also called chimeric anti-MICA 6E4
B3: the binding result in experiment [4] was “binds”.
